This is an account of results in IntAct's records for PubMed 31515488.

B1: Synaptotagmin-like protein 5 (Homo sapiens), Q8TDW5 (parent)
chain: MSKNSEFINLSFLLDHEKEMILGVLKRDEYLKKVEDKRIRKLKNELLEAKRRSGKTQQEASRVCVHCHRNLGLIFDRGDPCQACSLRVCRECRVAGPNGSWKCTVCDKIAQLRIITGEWFFEEKAKRFKQVNVLGTDVVRQSILRRSPGAEEVQSQEQTRQDAEKSDTSPVAGKKASHDGPKRKGFLLSKFRSATRGEIITPKTDTGRSYSLDLDGQHFRSLKSPPGSDRGSTGSSDLNDQEPGPRTPKSSRSNGVTPGTQSSPAPSTRTVTSVISREYGFENSMDLAAIEGTSQELTKSHRRNTSGTPSIAVSGTSLSSDQSRSELDLSESFTEDSEDTVSIRSKSVPGALDKDSLEETEESIDALVSSQLSTNTHRLASGLSTTSLNSMMSVYSETGDYGNVKVSGEILLHISYCYKTGGLYIFVKNCRNLAIGDEKKQRTDAYVKSYLLPDKSRNNKRKTKIRTGTNPEFNETLKYTISHTQLETRTLQLSVWHYDRFGRNSFLGEVEIPFDSWNFENPTDEWFVLQPKVEFAPDIGLQYKGELTVVLRYIPPEENLMLPPEQLQGNKTFKKGKKKESPVISGGILEVFIKEAKNLTAVKSGGTSDSFVKGYLLPDDSKATKHKTLVIKKSVNPQWNHTFMFSGIHPQDIKNVCLELTIWDKEAFSSNIFLGGVRLNSGSGVSHGKNVDWMDSQGEEQRLWQKMANNPGTPFEGVLMLRSSMGKCRL
partner: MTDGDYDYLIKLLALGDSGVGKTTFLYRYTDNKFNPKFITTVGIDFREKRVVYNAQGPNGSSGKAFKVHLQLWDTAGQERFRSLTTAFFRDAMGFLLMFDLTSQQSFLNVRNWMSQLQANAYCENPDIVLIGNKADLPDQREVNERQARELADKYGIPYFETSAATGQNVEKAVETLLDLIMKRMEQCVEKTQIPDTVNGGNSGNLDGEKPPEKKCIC
B2: Adenosylhomocysteinase (Homo sapiens), P23526 (parent)
chain: MSDKLPYKVADIGLAAWGRKALDIAENEMPGLMRMRERYSASKPLKGARIAGCLHMTVETAVLIETLVTLGAEVQWSSCNIFSTQDHAAAAIAKAGIPVYAWKGETDEEYLWCIEQTLYFKDGPLNMILDDGGDLTNLIHTKYPQLLPGIRGISEETTTGVHNLYKMMANGILKVPAINVNDSVTKSKFDNLYGCRESLIDGIKRATDVMIAGKVAVVAGYGDVGKGCAQALRGFGARVIITEIDPINALQAAMEGYEVTTMDEACQEGNIFVTTTGCIDIILGRHFEQMKDDAIVCNIGHFDVEIDVKWLNENAVEKVNIKPQVDRYRLKNGRRIILLAEGRLVNLGCAMGHPSFVMSNSFTNQVMAQIELWTHPDKYPVGVHFLPKKLDEAVAEAHLGKLNVKLTKLTEKQAQYLGMSCDGPFKPDHYRY
partner: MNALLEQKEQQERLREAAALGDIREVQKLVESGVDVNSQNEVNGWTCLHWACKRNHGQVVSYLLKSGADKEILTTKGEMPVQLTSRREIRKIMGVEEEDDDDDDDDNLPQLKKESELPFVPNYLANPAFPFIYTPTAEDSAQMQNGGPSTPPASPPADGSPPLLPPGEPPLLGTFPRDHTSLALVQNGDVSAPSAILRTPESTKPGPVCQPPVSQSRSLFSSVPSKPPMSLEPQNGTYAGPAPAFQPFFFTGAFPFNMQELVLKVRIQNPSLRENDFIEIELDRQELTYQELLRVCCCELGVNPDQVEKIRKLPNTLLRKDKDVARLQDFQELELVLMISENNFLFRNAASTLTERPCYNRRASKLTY
B3: Proteasome inhibitor PI31 subunit (Homo sapiens), Q92530 (parent)
chain: MAGLEVLFASAAPAITCRQDALVCFLHWEVVTHGYFGLGVGDQPGPNDKKSELLPAGWNNNKDLYVLRYEYKDGSRKLLVKAITVESSMILNVLEYGSQQVADLTLNLDDYIDAEHLGDFHRTYKNSEELRSRIVSGIITPIHEQWEKANVSSPHREFPPATAREVDPLRIPPHHPHTSRQPPWCDPLGPFVVGGEDLDPFGPRRGGMIVDPLRSGFPRALIDPSSGLPNRLPPGAVPPGARFDPFGPIGTSPPGPNPDHLPPPGYDDMYL
partner: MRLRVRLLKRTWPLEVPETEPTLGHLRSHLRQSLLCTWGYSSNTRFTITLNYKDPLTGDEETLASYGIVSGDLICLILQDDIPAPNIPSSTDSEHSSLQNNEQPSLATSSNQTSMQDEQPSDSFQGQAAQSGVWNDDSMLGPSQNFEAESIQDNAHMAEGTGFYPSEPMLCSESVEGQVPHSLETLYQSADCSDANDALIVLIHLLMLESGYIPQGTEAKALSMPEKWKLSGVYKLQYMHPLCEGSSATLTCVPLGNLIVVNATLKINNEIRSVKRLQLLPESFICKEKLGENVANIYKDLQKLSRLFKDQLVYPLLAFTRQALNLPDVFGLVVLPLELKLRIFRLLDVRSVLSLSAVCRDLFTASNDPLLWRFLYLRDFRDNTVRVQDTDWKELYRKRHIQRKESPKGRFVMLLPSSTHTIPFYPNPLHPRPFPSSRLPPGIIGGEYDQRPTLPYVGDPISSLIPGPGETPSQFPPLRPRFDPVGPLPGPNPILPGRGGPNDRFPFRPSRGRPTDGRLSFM
B4: Isoform 1 of Segment polarity protein dishevelled homolog DVL-3 (Homo sapiens), Q92997-1 (parent)
chain: MGETKIIYHLDGQETPYLVKLPLPAERVTLADFKGVLQRPSYKFFFKSMDDDFGVVKEEISDDNAKLPCFNGRVVSWLVSAEGSHPDPAPFCADNPSELPPPMERTGGIGDSRPPSFHPHAGGGSQENLDNDTETDSLVSAQRERPRRRDGPEHATRLNGTAKGERRREPGGYDSSSTLMSSELETTSFFDSDEDDSTSRFSSSTEQSSASRLMRRHKRRRRKQKVSRIERSSSFSSITDSTMSLNIITVTLNMEKYNFLGISIVGQSNERGDGGIYIGSIMKGGAVAADGRIEPGDMLLQVNEINFENMSNDDAVRVLREIVHKPGPITLTVAKCWDPSPRGCFTLPRSEPIRPIDPAAWVSHTAAMTGTFPAYGMSPSLSTITSTSSSITSSIPDTERLDDFHLSIHSDMAAIVKAMASPESGLEVRDRMWLKITIPNAFIGSDVVDWLYHNVEGFTDRREARKYASNLLKAGFIRHTVNKITFSEQCYYIFGDLCGNMANLSLHDHDGSSGASDQDTLAPLPHPGAAPWPMAFPYQYPPPPHPYNPHPGFPELGYSYGGGSASSQHSEGSRSSGSNRSGSDRRKEKDPKAGDSKSGGSGSESDHTTRSSLRGPRERAPSERSGPAASEHSHRSHHSLASSLRSHHTHPSYGPPGVPPLYGPPMLMMPPPPAAMGPPGAPPGRDLASVPPELTASRQSFRMAMGNPSEFFVDVM
B5: Vasculin (Homo sapiens), Q86WP2 (parent)
chain: MAQHDFAPAWLNFPTPPSSTKSSLNFEKHSENFAWTENRYDVNRRRHNSSDGFDSAIGRPNGGNFGRKEKNGWRTHGRNGTENINHRGGYHGGSSRSRSSIFHAGKSQGLHENNIPDNETGRKEDKRERKQFEAEDFPSLNPEYEREPNHNKSLAAGVWEYPPNPKSRAPRMLVIKKGNTKDLQLSGFPVVGNLPSQPVKNGTGPSVYKGLVPKPAAPPTKPTQWKSQTKENKVGTSFPHESTFGVGNFNAFKSTAKNFSPSTNSVKECNRSNSSSPVDKLNQQPRLTKLTRMRTDKKSEFLKALKRDRVEEEHEDESRAGSEKDDDSFNLHNSNSTHQERDINRNFDENEIPQENGNASVISQQIIRSSTFPQTDVLSSSLEAEHRLLKEMGWQEDSENDETCAPLTEDEMREFQVISEQLQKNGLRKNGILKNGLICDFKFGPWKNSTFKPTTENDDTETSSSDTSDDDDV
partner: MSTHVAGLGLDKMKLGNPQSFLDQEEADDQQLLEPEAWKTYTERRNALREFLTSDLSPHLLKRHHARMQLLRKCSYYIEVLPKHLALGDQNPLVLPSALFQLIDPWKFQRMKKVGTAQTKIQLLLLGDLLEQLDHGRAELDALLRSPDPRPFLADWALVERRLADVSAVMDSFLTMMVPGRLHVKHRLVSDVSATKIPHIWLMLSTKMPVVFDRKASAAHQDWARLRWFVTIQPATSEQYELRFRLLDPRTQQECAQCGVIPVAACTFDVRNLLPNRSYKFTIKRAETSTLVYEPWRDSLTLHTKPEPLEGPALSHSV

Variants of B1 are the subject of one test. As to conditions: with rb27b_human RAB27B.
Take R160H: the “effect of a mutation on the interaction” value is “with no effect”.

A further test covers variants of B2. As to conditions: with anr40_human ANKRD40, Q6AI12.
Consider I92V, for which the “effect of a mutation on the interaction” value was “with no effect”.

The variants in another test derive from B3. As to conditions: with fbx7_human FBXO7, Q9Y3I1.
In the case of V192A, the “effect of a mutation on the interaction” value is recorded as “with no effect”.

The next test covers variants of B4. As to conditions: with kat7_human KAT7, O95251.
kat7_human KAT7, O95251, sequence (O95251 whole entry): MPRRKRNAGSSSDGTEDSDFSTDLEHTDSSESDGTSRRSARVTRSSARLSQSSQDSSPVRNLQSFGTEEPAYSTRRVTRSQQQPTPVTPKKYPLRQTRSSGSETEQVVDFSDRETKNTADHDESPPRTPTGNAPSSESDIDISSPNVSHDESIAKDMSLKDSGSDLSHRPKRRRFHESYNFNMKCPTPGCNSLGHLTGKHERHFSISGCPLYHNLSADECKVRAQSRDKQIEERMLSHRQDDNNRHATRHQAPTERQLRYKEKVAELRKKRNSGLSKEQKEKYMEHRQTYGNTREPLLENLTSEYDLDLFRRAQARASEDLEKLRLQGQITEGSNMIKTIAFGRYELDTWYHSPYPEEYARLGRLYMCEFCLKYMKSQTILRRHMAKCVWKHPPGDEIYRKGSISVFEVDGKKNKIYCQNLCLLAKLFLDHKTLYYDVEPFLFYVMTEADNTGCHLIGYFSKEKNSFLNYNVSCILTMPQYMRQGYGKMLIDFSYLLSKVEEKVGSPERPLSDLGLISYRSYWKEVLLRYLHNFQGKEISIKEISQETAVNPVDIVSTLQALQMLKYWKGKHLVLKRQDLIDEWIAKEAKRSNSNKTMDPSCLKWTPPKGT
On to R216T, for which the “effect of a mutation on the interaction” value is given as “with no effect”.

The variants in a further test derive from B5. The following applies: with fnd11_human FNDC11, Q9BVV2.
As for S449R, the “effect of a mutation on the interaction” value was “with no effect”.
